Data: article PMC9191617 (Glycobiology, 2022)

Target: the molecule itself
Assay: crystal structure

B1: CML1 (C. cinerea Mucin-binding Lectin 1), recombinant untagged (natural protein, Coprinopsis cinerea, UniProt B3VS76 1-127, looked up)
chain: MAIFHTGSELFIITRGPGKLTLLTWGGLNNLRSVIGAIPTENTGVTKWAVSFSHNYTRFSFIWEGQGEACYQIGNGLTRSPVGRSWSSSSTIHWGSSTVITEDVTSVVPGAVNRDKVTTAYALPDNL
In the case of B1, the “stoichiometry N” value is reported as 6.
